According to US20220372138A1 (IOMX THERAPEUTICS, published 2022):
Numbering of substitutions follows the chain as printed.

Legend:
[1] = molecular target: T1, extracellular domain (ECD) of human IGSF11 (VSIG3), recombinant (human, UniProt Q5DX21 23-241); experiment: SPR
T1 construct: biotinylated where captured on streptavidin; tags of the reagent not always stated; also called IGSF11 (ECD domain); ECD-IGSF11
T1 sequence: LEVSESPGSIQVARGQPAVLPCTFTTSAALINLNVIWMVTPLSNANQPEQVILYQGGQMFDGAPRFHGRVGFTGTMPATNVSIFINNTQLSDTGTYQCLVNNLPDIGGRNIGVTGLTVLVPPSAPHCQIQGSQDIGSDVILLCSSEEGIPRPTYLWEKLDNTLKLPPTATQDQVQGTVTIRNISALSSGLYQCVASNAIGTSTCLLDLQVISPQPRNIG

[2] = molecular target: T2, human IGSF11 (VSIG3) expressed on cells (human, UniProt Q5DX21 23-431); experiment: IgG1 FACS HEK-OE
T2 sequence: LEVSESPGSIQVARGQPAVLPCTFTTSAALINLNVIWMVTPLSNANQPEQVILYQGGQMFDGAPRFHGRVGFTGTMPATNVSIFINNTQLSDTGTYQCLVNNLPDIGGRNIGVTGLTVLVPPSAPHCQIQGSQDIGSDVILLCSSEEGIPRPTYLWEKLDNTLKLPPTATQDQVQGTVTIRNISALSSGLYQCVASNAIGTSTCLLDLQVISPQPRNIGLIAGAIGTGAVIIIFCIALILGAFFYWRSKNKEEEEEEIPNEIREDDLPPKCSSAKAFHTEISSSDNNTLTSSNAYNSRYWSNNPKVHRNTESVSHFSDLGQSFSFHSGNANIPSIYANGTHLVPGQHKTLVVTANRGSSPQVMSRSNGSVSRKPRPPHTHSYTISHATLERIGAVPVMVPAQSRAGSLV

[3] = molecular target: T2, human IGSF11 (VSIG3) expressed on cells; experiment: IgG1 FACS DMS 273
[4] = molecular target: T3, human IGSF11 (VSIG3) ECD, His-tagged (human, UniProt Q5DX21 23-241); experiment: IgG1 ELISA EC50 <0.02 nM
T3 construct: in part bought (SinoBiological 13094-H08H); also called HIS-IGSF11; IGSF11-HIS; not shown: His tag
T3 sequence: T1 sequence

[5] = molecular target: T2, human IGSF11 (VSIG3) expressed on cells; experiment: FACS, DMS 273 cells with scrambled control siRNA (SC)
[6] = molecular target: T2, human IGSF11 (VSIG3) expressed on cells; experiment: FACS, M579-A2-luc cells with scrambled control siRNA (SC)
[7] = molecular target: T2, human IGSF11 (VSIG3) expressed on cells; experiment: FACS, DMS 273 cells with IGSF11 siRNA (KD, knock-down control)
[8] = molecular target: T2, human IGSF11 (VSIG3) expressed on cells; experiment: FACS, M579-A2-luc cells with IGSF11 siRNA (KD, knock-down control)
[9] = molecular target: T4, ECD of murine IGSF11, recombinant biotinylated (mouse, UniProt P0C673 23-240); experiment: ELISA RFU>1.0
T4 construct: whole entry named; also called Mouse IGSF11
T4 sequence: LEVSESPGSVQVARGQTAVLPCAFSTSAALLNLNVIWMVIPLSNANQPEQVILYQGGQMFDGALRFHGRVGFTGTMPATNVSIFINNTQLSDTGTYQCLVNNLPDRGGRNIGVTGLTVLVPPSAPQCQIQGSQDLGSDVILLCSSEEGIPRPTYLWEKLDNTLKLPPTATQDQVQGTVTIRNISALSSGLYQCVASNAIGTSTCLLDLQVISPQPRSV

[10] = molecular target: T1, extracellular domain (ECD) of human …; experiment: ELISA RFU 0.5-1.0
[11] = molecular target: T5, ECD of cynomolgus monkey IGSF11, recombinant biotinylated (cynomolgus monkey, UniProt Q5DX21 23-241 (human entry)); experiment: Fab ELISA
T5 construct: whole entry named
T5 chain: T1 sequence with P17T, I83V, A185T, S187T

[12] = molecular target: T1, extracellular domain (ECD) of human …; experiment: ELISA RFU 0.1-0.5
[13] = molecular target: T4, ECD of murine IGSF11, recombinant …; experiment: Fab ELISA
Streptavidin = Streptavidin (UniProt P22629 37-163, limits assumed); experiment: Fab ELISA
[14] = molecular target: T6, full-length ECD of human IGSF11 fused to murine Fc (human, UniProt Q5DX21 23-241); experiment: IgG ELISA;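 note: ELISA binding of IgG antibodies to plate-coated IGSF11 Fc-fusion proteins (full-length ECD, IgV or IgC2 domain), detected via HRP-labelled anti-human IgG with TMB development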
T6 construct: also called Fc-fusion IGSF11 ECD; not shown: murine Fc
T6 sequence: T1 sequence

[15] = molecular target: T7, IgV domain of human IGSF11 fused to murine IgG2a Fc (human, UniProt Q5DX21 23-143); experiment: IgG ELISA;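 note: ELISA binding of IgG antibodies to plate-coated IGSF11 Fc-fusion proteins (full-length ECD, IgV or IgC2 domain), detected via HRP-labelled anti-human IgG with TMB development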
T7 construct: not shown: murine IgG2a Fc-region
T7 sequence: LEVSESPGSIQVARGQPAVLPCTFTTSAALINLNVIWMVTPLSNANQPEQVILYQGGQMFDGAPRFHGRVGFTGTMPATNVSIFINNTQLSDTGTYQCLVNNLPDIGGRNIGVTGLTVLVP

Chain of Streptavidin (P22629 37-163 limits assumed): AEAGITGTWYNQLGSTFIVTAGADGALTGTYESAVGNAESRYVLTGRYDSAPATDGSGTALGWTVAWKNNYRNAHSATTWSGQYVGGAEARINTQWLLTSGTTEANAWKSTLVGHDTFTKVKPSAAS

B1: A-013 (IgG1 format) (antibody, V domains shown)
VH: EVQLVESGGGLIQPGGSLRLSCAASGFTVSSNYMSWVRQAPGKGLEWVSVIYSGGSTYYADSVKGRFTISRDNSKNTLYLQMNSLRAEDTAVYYCARGNPYYYGDLQVNFDYWGQGTLVTVSS
VL: QAVVTQEPSLTVSPGGTVTLTCASSTGAVTSAYYPNWFQQKPGQAPRALIYSTSNKHSWTPARFSGSLLGGKAALTLSGVQPEDEADYYCLLYYGGAWVFGGGTKLTVL
notes: human IgG1 format
Kd [1]: 100 to 250 nM | EC50 [2]: 10 to 50 nM | EC50 [3]: > 50 nM | EC50 [4]: < 0.02 nM

B2: A-015 (IgG1 format) (antibody, V domains shown)
VH: not shown
VL: QPVLTQSPSASASLGASVKLTCTLSSGHTNYAIAWRQQQPGKAPRYLMLLNSDGSHTRGGGIPDRFSGSSSGAERYLTISSLQSEDEADYYCMIWHNNAWVFGGGTKLAVL
notes: human IgG1 format
% binding (FACS heat-map) [5]: 5.97% | % binding (FACS heat-map) [6]: 1.17% | % binding (FACS heat-map) [7]: 1.6% | % binding (FACS heat-map) [8]: 1.3%

B3: A-007 (IgG1 format) (antibody, V domains shown)
VH: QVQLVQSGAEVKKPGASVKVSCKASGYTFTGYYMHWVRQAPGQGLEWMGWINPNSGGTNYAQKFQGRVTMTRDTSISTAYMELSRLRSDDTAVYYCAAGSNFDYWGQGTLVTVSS
VL: QSALTQPASVSGSPGQSITIACTGSSSDIGSFSYVSWYQQRPGKAPTLIIYGVNNRPLGVSRRFSGSKSGNTASLSISGLQAEDEADYYCSSYTRRSTVIFGGGTKLTVL
notes: human IgG1 format
EC50 [2]: < 10 nM | EC50 [3]: < 10 nM | EC50 [4]: < 0.02 nM | % binding (FACS heat-map) [5]: 82.3% | % binding (FACS heat-map) [6]: 65.6% | % binding (FACS heat-map) [7]: 34.2% | % binding (FACS heat-map) [8]: 9.15%

B4: A-004 (scFv format) (scFv, V domains shown)
VH: EVQLVESGGGLVKPGGSLRLSCAASGFTFSSYSMNWVRQAPGKGLEWVSSISSSSSYIYYADSVKGRFTISRDNAKNSLYLQMNSLRAEDTAVYYCARGQLLWFGESALIDAFDIWGQGTMVTVSS
VL: EIVLTQSPSSLSASVGDRVTITCRASQSISSYLNWYQLKPGKAPKLLIYAASILQSGVPSRFSGSGSGTDFTLTISSLQPEDFAAYYCQQSYSTPRTFGQGTKLEIK
notes: scFv
ELISA binding signal (RFU) [9]: > 1 rfu | ELISA binding signal (RFU) [10]: 0.5 to 1 rfu

B5: A-035 (scFv format) (scFv, V domains shown)
VH: QVQLVQSGAEVKKPGASVKVSCKASGYTFTGYYMHWVRQAPGQGLEWMGWINPNSGNTGYAQKFQGRVTMTRNTSISTAYMELSSLRSEDTAVYYCARGRLERGYWYFDLWGRGTLVTVSS
VL: NFMLTQPHSVSESPGRTVTISCTRSSGSITSNYVQWYQQRPGSAPTILIYEDKERPSEVPDRFSGSIDISSNSASLTISGLKTEDEADYYCQSYGGTSQGVLFGGGTKVTVL
notes: scFv
ELISA binding signal (RFU) [9]: > 1 rfu | ELISA binding signal (RFU) [10]: 0.5 to 1 rfu

B6: C-006 (Fab format) (Fab, V domains shown)
VH: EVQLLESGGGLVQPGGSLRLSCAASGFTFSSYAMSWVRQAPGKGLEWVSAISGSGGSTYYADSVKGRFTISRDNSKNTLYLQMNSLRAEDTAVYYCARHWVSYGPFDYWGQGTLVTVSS
VL: DIQMTQSPSSLSASVGDRVTITCRASQSISSYLNWYQQKPGKAPKLLIYAASSLQSGVPSRFSGSGSGTDFTLTISSLQPEDFATYYCQQSHQSPPITFGQGTKVEIK
notes: Fab from E. coli lysate
A450 [11]: < 1

B7: A-011 (scFv format) (scFv, V domains shown)
VH: QVQLVESGGGVVQPGRSLRLSCAASGFTFSSYAMHWVRQAPGKGLEWVAVISYDGSNKYYADSVKGRFTISRDNSKNTLYLQMNSLRAEDTAVYYCAEGGALNYYGMDVWGQGTTVTVSS
VL: SSELTQDPGVSVALGQTVRITCQGDSLRHFYATWYQQKPGQAPILVIYGKNNRPSGIPDRFSGSSSEDTASLTITGAQAEDEADYYCQSRDPRNNHLIFGGGTKLIVL
notes: scFv
ELISA binding signal (RFU) [9]: > 1 rfu | ELISA binding signal (RFU) [12]: 0.1 to 0.5 rfu

B8: C-010 (Fab format) (Fab, V domains shown)
VH: QVQLVQSGAEVKKPGSSVKVSCKASGGTFSSYAISWVRQAPGQGLEWMGGIIPIFGTANYAQKFQGRVTITADESTSTAYMELSSLRSEDTAVYYCARGYGEYYPAFDVWGQGTLVTVSS
VL: SYELTQPPSVSVSPGQTASITCSGDKLGDKYASWYQQKPGQSPVLVIYQDSKRPSGIPERFSGSNSGNTATLTISGTQAEDEADYYCASYAHTHSTWVFGGGTKLTVL
notes: Fab from E. coli lysate
A450 [13]: < 1 | A450 [11]: < 1 | A450 (Streptavidin): < 0.1

B9: C-012 (Fab format) (Fab, V domains shown)
VH: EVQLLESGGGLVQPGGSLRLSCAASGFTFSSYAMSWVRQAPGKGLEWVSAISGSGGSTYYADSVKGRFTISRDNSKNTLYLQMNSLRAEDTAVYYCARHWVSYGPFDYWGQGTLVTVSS
VL: B6 VL
notes: Fab from E. coli lysate
A450 [11]: < 1

B10: C-008 (IgG1 format) (antibody, V domains shown)
VH: EVQLLESGGGLVQPGGSLRLSCAASGFTFSSYAMSWVRQAPGKGLEWVSAISGSGGSTYYADSVKGRFTISRDNSKNTLYLQMNSLRAEDTAVYYCTTDNGHNRDWGQGTLVTVSS
VL: ASVLTQPPSVSAAPGQKVTISCSGSSSNIGNNYVSWYQQLPGTAPKLLIYDNNKRPSGIPDRFSGSKSGTSATLGITGLQAEDEADYYCGTWTRSSGVFGGGTKLTVL
EC50 [14]: < 1 nM | EC50 [15]: < 1 nM

B11: C-009 (IgG1 format) (antibody, V domains shown)
VH: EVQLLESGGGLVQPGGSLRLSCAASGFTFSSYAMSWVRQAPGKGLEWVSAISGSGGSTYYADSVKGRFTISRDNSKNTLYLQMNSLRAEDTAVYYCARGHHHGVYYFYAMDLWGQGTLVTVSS
VL: B8 VL with A88Q, A91S, H92G, T93S, H94S, S95T, T96L, W97H
EC50 [14]: 1 to 20 nM | EC50 [15]: < 1 nM

B12: C-024 (IgG1 format) (antibody, V domains shown)
VH: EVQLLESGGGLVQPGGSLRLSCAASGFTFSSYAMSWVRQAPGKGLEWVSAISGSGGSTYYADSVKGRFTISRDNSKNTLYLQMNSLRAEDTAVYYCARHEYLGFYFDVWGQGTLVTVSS
VL: B8 VL with A88L, S89A, Y90S, A91H, H92R, T93L, H94T, S95L, T96N, W97Y
EC50 [14]: 1 to 20 nM | EC50 [15]: 1 to 20 nM

B13: C-025 (IgG1 format) (antibody, V domains shown)
VH: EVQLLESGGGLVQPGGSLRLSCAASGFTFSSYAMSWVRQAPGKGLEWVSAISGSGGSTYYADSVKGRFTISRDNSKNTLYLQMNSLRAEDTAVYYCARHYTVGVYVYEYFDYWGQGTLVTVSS
VL: SYELTQPPSVSVSPGQTASITCSGDKLGDKYASWYQQKPGQSPVLVIYQDSKRPSGIPERFSGSNSGNTATLTISGTQAEDEADYYCQSYATAGFVFGGGTKLTVL
EC50 [14]: 1 to 20 nM | EC50 [15]: < 1 nM

B14: C-026 (IgG1 format) (antibody, V domains shown)
VH: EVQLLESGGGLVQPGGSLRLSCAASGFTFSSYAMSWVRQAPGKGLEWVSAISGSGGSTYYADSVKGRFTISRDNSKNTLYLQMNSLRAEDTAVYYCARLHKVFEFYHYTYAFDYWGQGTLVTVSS
VL: ASVLTQPPSVSAAPGQKVTISCSGSSSNIGNNYVSWYQQLPGTAPKLLIYDNNKRPSGIPDRFSGSKSGTSATLGITGLQAEDEADYYCASYSSETSGWVFGGGTKLTVL
EC50 [14]: 1 to 20 nM | EC50 [15]: < 1 nM

B15: A-022 (scFv format) (scFv, V domains shown)
VH: EVQLLESGPGLVKPSQTLSLTCTVSGGSISSGGYYWSWIRQHPGKGLEWIGYIYYSGSTYYNPSLKSRVTISVDTSKNQFSLKLSSVTAADTAVYYCARASRSTDYYFDYWGQGTLVTVSS
VL: QPGLTQPPSMSYGLGQTATLTCTGNRNNIGDQGAAWLQQHQGHPPKLLSYRNNNGPSGISERLSASRSGNTASLTISGLQPEDEADYYCSAWDSSLRAWVFGGGTKLTVL
notes: scFv
ELISA binding signal (RFU) [9]: > 1 rfu | ELISA binding signal (RFU) [10]: 0.5 to 1 rfu
